Measurements from patent US20190367631A1 (Regeneron, published 2019).

T1: mouse MSR1 on RAW264.7 cells (mouse, UniProt P30204 1-458)
T1 construct: whole, on cells; also called MSR1 positive RAW264.7 cells
T1 sequence (looked up): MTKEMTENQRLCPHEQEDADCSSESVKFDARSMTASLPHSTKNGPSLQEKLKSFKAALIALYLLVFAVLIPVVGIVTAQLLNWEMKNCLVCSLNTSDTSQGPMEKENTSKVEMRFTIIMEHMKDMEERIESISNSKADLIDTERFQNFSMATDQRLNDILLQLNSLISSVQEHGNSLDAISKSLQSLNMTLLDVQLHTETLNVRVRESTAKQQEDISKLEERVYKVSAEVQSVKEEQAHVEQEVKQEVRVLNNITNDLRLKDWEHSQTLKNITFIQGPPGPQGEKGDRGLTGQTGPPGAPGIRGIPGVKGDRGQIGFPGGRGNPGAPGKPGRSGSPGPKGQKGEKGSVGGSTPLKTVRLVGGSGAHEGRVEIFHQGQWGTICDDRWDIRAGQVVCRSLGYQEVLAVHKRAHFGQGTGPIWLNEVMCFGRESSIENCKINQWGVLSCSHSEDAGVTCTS

T2: full length human MSR1 with a C-terminal Myc tag, on HEK293.Myc.hMSR1 cells (human, UniProt P21757 1-451)
T2 sequence (looked up): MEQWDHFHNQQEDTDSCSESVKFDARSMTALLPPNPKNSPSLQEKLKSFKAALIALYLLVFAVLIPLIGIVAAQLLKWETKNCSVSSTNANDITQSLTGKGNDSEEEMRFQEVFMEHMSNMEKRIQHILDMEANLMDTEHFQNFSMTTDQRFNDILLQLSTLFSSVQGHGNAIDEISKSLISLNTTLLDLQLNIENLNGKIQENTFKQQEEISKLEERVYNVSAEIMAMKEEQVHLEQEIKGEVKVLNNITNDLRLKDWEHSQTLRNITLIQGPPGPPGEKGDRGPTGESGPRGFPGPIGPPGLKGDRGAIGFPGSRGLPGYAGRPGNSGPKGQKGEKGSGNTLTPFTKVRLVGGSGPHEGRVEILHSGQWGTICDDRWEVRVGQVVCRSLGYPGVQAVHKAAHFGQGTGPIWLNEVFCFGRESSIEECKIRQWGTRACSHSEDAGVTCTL

T3: human MSR1 extracellular domain expressed with a N-terminal nonahistidine tag (His9-hMSR1); R&D Systems, Cat … (human, UniProt P21757 77-451)
T3 construct: extracellular domain; Bought reagent; also called His-hMSR1; 9xHis-hMSR1
T3 sequence: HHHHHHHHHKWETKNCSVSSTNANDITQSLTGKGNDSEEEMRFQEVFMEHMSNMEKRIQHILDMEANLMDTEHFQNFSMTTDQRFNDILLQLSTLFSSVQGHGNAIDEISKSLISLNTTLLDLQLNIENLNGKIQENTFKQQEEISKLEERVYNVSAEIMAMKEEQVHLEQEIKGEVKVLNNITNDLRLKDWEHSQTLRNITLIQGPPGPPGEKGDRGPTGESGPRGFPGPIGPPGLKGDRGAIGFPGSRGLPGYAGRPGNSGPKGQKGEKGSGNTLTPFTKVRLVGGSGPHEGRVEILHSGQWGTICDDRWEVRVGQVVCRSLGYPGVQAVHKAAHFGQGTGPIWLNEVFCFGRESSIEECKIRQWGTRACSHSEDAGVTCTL


How the values were obtained:
[1] = target: T1, mouse MSR1 on RAW264.7 cells; experiment: flow cytometry, RAW264.7 cells
Description: To block binding to Fc receptors, RAW264.7 cells were incubated for 30 minutes at 4° C. with 500 pg/mL mouse IgG (Jackson ImmunoResearch, Cat #015-000-003) diluted in staining buffer, while B16F10.9 cells remained in staining buffer. […] The signal to noise (S/N) was determined by calculating the ratio of the anti-MSR1 antibodies or the control antibodies MFI to the unstained sample MFI (Table 11).

[2] = target: T2, full length human MSR1 with a …; experiment: cell-based or functional assay
[3] = target: T3, human MSR1 extracellular domain …; experiment: SPR Biacore T200, 25 C, antibody captured by anti-human Fc, His9-hMSR1 injected; no dissociation seen, kd fixed at 1.00E-05;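 for kon: running buffer HBS-ET pH 7.4, rates from sensorgrams fitted to a 1:1 model including mass transport limitation, KD and half-life derived from the kinetic constants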
Description: All binding studies were performed in 10 mM HEPES, 300 mM NaCl, 3 mM EDTA, and 0.05% v/v Surfactant Tween-20, pH 7.4 (HBS-ET) running buffer at 25° C.
The association rate (kₐ) and dissociation rate (kd) were determined by fitting the real-time binding sensorgrams to a 1:1 binding model with mass transport limitation using Scrubber 2.0c curve-fitting software. Binding dissociation equilibrium constant (KD) and dissociative half-life (t½) were calculated from the kinetic rates as:

[4] = target: T3, human MSR1 extracellular domain …; experiment: SPR Biacore T200, 25 C, antibody captured by anti-human Fc, His9-hMSR1 injected;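 note: running buffer HBS-ET pH 7.4, rates from sensorgrams fitted to a 1:1 model including mass transport limitation, KD and half-life derived from the kinetic constants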
Throughout, for % Inhibition of Dil-Acetylated LDL uptake: test concentration or dose not given here.
Throughout, for % Inhibition of Dil-Oxidized LDL uptake: test concentration or dose not given here.

Row | Binder | MFI [1] [MFI] | S/N (MFI over unstained MFI) [1] | % Inhibition of Dil-Acetylated LDL uptake [2] [%] | % Inhibition of Dil-Oxidized LDL uptake [2] [%] | IC50 of Dil-Acetylated LDL uptake inhibition [2] [nM] | IC50 of Dil-Oxidized LDL uptake inhibition [2] [nM] | Kd [3] [nM] | koff [3] [s⁻¹] | t½ [3] [h] | kon [4] [M⁻¹ s⁻¹]
1 | H1H27756P-N297Q (antibody, human IgG1, V domains shown, human IgG1 Fc with N297Q) VH: QVQLVESGGGVVQPGRSLRLSCAASGFTFSNYDMHWVRQAPGKGLEWMAVISYDGINKYYADSVKGRFTISRDNSKNTLYLQMNSLRAEDTAVYYCAKGTYSWYFDLWGRGTLVTVSS VL: not shown | 4570 | 1 | 42 | 76 | > 100 | – | – | – | – | –
2 | H1H27760P2-N297Q (antibody, human IgG1, V domains shown, human IgG1 Fc with N297Q; also called H1H27760P-N297Q) VH: EVQLVESGGGLVQPGRSLRLSCAASGFTFDAYAMHWVRQAPGKGLEWVSGISWNSGSIGYADSVKGRFTISRDNAKNSLYLQMNSLREEDTALYYCAKDKILELYYYGMDVWGQGTTVTVSS VL: not shown | 3430 | 1 | 46 | 70 | 2.6 | 4.9 | – | – | – | –
3 | H1H27731P-N297Q-LP1 (antibody, V domains shown, LXR agonist linker-payload LP1 clicked to azido-PEG3-amine on Q295 and Q297 (EU) of the heavy chain constant region, antibody-drug conjugate; human IgG1 Fc with N297Q (EU); also called H1H27731P-LP1) VH: QLQLQESGPGLVKPSETLSLTCTVSGGSISRISYYWGWIRQPPGKGLEWIGSIYDSGSTYYNPSLKSRVTISIDTSKNQFSLKLSSVTAADTAVYYCVRYSSSSAFAFDYWGQGTLVTVSS VL: DIQMTQSPSSVSASVGDRVTITCRASQGISSWLAWYQQKPGKAPKLLIYAASSLQSGVPSRFSGSGSGTDFTLTISSLQPEDFATYYCQQANSFPFTFGPGTKVDIKR | – | – | – | – | – | – | ≤ 0.078 | ≤ 1e-05 | ≥ 19.3 | 128000
4 | H1H27754P-N297Q-LP1 (antibody, human IgG1, V domains shown, LXR agonist linker-payload LP1 clicked to azido-PEG3-amine on Q295 and Q297 (EU) of the heavy chain constant region, antibody-drug conjugate; human IgG1 Fc with N297Q (EU); also called H1H27754P-LP1) VH: EVQLVESGGGLVQPGGSLRLSCAASGFTFRTYAMTWVRQAPGKGLDWVSAITGDGGNTYYADSVKGRFTISRDNSKNTLYLQMNSLRAEDTAIYYCAKDQRFSFALYYFDYWGQGTLVTVSS VL: DIQMTQSPSSVSASVGDRVTITCRASQGISSWLAWYQQKPGNAPKLLIYAAFSLQSGVPSRFSGSGSGTDFTLTISSLQPEDFATYYCQQANNFPWTFGQGTKVEIKR | – | – | – | – | – | – | ≤ 0.0564 | ≤ 1e-05 | ≥ 19.3 | 177000
5 | H1H27754P-N297Q (antibody, human IgG1, V domains shown, human IgG1 Fc with N297Q (EU)) VH: EVQLVESGGGLVQPGGSLRLSCAASGFTFRTYAMTWVRQAPGKGLDWVSAITGDGGNTYYADSVKGRFTISRDNSKNTLYLQMNSLRAEDTAIYYCAKDQRFSFALYYFDYWGQGTLVTVSS VL: DIQMTQSPSSVSASVGDRVTITCRASQGISSWLAWYQQKPGNAPKLLIYAAFSLQSGVPSRFSGSGSGTDFTLTISSLQPEDFATYYCQQANNFPWTFGQGTKVEIKR | – | – | – | – | – | – | ≤ 0.0499 | ≤ 1e-05 | ≥ 19.3 | 200000
6 | H1H27754P-N297Q (antibody, human IgG1, V domains shown, human IgG1 Fc with N297Q) VH: EVQLVESGGGLVQPGGSLRLSCAASGFTFRTYAMTWVRQAPGKGLDWVSAITGDGGNTYYADSVKGRFTISRDNSKNTLYLQMNSLRAEDTAIYYCAKDQRFSFALYYFDYWGQGTLVTVSS VL: DIQMTQSPSSVSASVGDRVTITCRASQGISSWLAWYQQKPGNAPKLLIYAAFSLQSGVPSRFSGSGSGTDFTLTISSLQPEDFATYYCQQANNFPWTFGQGTKVEIKR | 5410 | 1 | – | – | – | – | – | – | – | –
7 | H1H27747P-N297Q (antibody, human IgG1, V domains shown, human IgG1 Fc with N297Q) VH: QVQLVESGGAVVQPGRSLRLSCAASGFTFSYYGMHWVRQAPGKGLEWVAVISYDGSKKYYADSVKGRFTISRDNSKNTLYLQMNSLRAEDTAVYYCAKDLTVDFYYGMDVWGQGTTVTVSS VL: DIQMTQSPSSVSASVGDRVTITCRASQGISSWLAWYQQKPGKAPKLLIYATSSLQSGAPSRFSGSGSGTDFTLTISSLQPEDFATYFCQQANSFPYTFGQGTKLEIKR | 3630 | 1 | – | – | – | – | – | – | – | –
8 | H1H27773P2-N297Q (antibody, human IgG1, V domains shown, human IgG1 Fc with N297Q; also called H1H27773P-N297Q) VH: EVQLVESGGGLVQPGGSLRLSCAASGFTFSSYAMNWVRQAPGKGLEWVSAISGSGDSTYYADSVKGRFTISRDNSRTTLSLQLNSLRAEDTAVYYCAKDRLLWFGELGSPFHYWGQGTLVTVSS VL: not shown | – | 1 | – | – | – | – | – | – | – | –
